Like-named read-outs stand apart in the source and are kept apart here.

Here are results for five molecules from publication PMC8034803.

Series [1] addresses PABP1 (Homo sapiens) (UniProt P11940). Conditions: cited from earlier work.
The target in series [2] is WT NS1-RBD (Influenza A virus A/Udorn/307/1972 …, UniProt P03495 1-73). Kind of series: fluorescence anisotropy.
The target of series [3] is T1, PABP1 (human, UniProt P11940 1-636). Kind of series: EMSA.
Series [4] has as its target T1, PABP1. Kind of series: EMSA. The source holds these as a separate data set.
The target in series [5] is T1, PABP1. Kind of series: EMSA. The source holds these as a separate data set.

T1 sequence (P11940 whole entry): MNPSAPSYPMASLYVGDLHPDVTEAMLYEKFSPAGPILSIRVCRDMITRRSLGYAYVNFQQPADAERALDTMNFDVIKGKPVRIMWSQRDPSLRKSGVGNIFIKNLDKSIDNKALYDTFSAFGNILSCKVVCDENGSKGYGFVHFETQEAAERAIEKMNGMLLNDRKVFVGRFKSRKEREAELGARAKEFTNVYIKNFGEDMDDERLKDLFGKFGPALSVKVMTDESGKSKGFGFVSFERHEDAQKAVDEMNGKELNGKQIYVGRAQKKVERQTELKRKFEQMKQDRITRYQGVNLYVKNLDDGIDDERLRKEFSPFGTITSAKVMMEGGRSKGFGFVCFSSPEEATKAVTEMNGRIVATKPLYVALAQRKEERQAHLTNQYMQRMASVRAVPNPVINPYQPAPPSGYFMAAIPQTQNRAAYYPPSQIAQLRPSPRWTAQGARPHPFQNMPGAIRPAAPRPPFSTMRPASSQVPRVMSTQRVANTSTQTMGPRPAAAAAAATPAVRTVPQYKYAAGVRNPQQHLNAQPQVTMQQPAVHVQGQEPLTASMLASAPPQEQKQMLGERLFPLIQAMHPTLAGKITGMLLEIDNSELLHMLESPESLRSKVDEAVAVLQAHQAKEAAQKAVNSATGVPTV
WT NS1-RBD, sequence (P03495 1-73): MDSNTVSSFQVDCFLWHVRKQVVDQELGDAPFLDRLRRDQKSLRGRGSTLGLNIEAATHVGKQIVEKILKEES
PABP1 (Homo sapiens), sequence (P11940 whole entry): as the sequence (P11940 whole entry) above

NS1 (from UniProt Q8QPI8): the Kd in series [1] was 20 nM.

B1: dsRK1 (dsRNA)
RNA 1: CCAUCCUCUACAGGCG
RNA 2: CGCCUGUAGAGGAUGG
As for B1, the dissociation constant (Kd) in series [2] was determined as 76 ± 9 nM.
Consider AAAAAAAAAAAAAAAAAA (ssRNA) [poly(A)18], for which the binding result in series [3] is given as “binds”.
Turning to GCUAUCCAGAUUCUGAUU (ssRNA) [ssCR1], the binding result in series [4] is reported as “no binding”.

B2: poly(A)60 (ssRNA)
RNA: AAAAAAAAAAAAAAAAAAAAAAAAAAAAAAAAAAAAAAAAAAAAAAAAAAAAAAAAAAAA
B2: the binding result in series [5] was “binds”.
